Numbering of substitutions follows the chain as printed.
T1: mouse active NSP4 (mA-NSP4) (mouse, UniProt Q14B24 40-284)
T1 construct: mature; Made from mZ by enteropeptidase cleavage; also called mature form of mouse NSP4
T1 sequence (looked up): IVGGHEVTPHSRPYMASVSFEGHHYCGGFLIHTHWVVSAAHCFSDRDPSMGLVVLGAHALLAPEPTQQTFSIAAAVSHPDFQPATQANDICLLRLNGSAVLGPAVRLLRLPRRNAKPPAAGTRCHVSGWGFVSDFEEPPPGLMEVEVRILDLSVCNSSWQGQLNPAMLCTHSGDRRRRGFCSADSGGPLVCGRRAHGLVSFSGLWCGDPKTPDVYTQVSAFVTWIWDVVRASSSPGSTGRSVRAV

T2: human NSP4 (hNSP4), form not stated in Example 6 (human, UniProt Q6UWY2 34-283, limits assumed)
T2 sequence (looked up): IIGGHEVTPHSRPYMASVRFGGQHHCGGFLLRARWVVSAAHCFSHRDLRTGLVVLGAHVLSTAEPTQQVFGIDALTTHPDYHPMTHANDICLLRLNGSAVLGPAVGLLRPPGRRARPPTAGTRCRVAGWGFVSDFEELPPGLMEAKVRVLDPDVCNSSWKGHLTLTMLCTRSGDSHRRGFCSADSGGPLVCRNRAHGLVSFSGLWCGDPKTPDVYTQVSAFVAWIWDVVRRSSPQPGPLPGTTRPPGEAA

T3: mouse NSP4 (mNSP4), form not stated in Example 6 (mouse, UniProt Q14B24 40-284, limits assumed)
T3 construct: also called recombinant mouse NSP4; purified mouse NSP4
T3 sequence (looked up): T1 sequence (looked up)

T4: mouse active NSP4 (mA-NSP4) (mouse, UniProt Q14B24 40-284)
T4 chain: T1 sequence (looked up)

T5: mouse zymogen NSP4 (mZ-NSP4) (mouse, UniProt Q14B24 36-284)
T5 chain: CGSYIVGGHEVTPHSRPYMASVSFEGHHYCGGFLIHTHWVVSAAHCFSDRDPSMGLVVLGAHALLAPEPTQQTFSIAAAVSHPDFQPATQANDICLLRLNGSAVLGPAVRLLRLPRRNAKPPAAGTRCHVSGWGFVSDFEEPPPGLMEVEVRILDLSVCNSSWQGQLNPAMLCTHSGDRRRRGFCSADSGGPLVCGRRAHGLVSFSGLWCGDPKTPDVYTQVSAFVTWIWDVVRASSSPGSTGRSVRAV

T6: human active NSP4 (hA-NSP4) (human, UniProt Q6UWY2 34-283)
T6 construct: range 34-283; Insect-cell material of the same construct was used for the crystal structures; also called mature form of human NSP4
T6 sequence (looked up): T2 sequence (looked up)

B1: anti-NSP4 antibody 5-2 (antibody, human IgG1, V domains shown)
VH: EVQLVESGGGLVQPGGSLRLSCAASGFTFSNTYISWVRQAPGKGLEWVGFIYPANGATYYADSVKGRFTISADTSKNTAYLQMNSLRAEDTAVYYCARRYRLSFDYWGQGTLVTVSS
VL: DIQMTQSPSSLSASVGDRVTITCRASQDVSTAVAWYQQKPGKAPKLLIYSASFLYSGVPSRFSGSGSGTDFTLTISSLQPEDFATYYCQQSYTTPPTFGQGTKVEIKR
notes: also called Ab 5-2
B2: affinity matured anti-NSP4 antibody clone 35.14 (Fab, V domains shown)
VH: EVQLVESGGGLVQPGGSLRLSCAASGFTFSDNDISWVRQAPGKGLEWVGSISPDNGDTNYADSVKGRFTISADTSKNTAYLQMNSLRAEDTAVYYCARDDVPAVFTSAMDYWGQGTLVTVSS
VL: B1 VL with T93G, T94F, P96L
B3: affinity matured anti-NSP4 antibody clone 35.50 (Fab, V domains shown)
VH: B2 VH
VL: B1 VL with T93D, T94F, P96L
B4: affinity matured anti-NSP4 antibody clone 35.62 (Fab, V domains shown)
VH: B2 VH
VL: B1 VL with Y92A, T93G, T94F, P96L
B5: affinity matured anti-NSP4 antibody clone 35.77 (Fab, V domains shown)
VH: EVQLVESGGGLVQPGGSLRLSCAASGFTFSGSGIHWVRQAPGKGLEWVAWISPTGGNTYYADSVKGRFTISADTSKNTAYLQMNSLRAEDTAVYYCAKRHLHNVAFDYWGQGTLVTVSS
VL: B1 VL with S91A, T93S, T94A
B6: affinity matured anti-NSP4 antibody clone 51.72 (Fab, V domains shown)
VH: B5 VH with R99S, H100L, L101F
VL: B1 VL with T94A
B7: affinity matured anti-NSP4 antibody clone 51.50 (Fab, V domains shown)
VH: B5 VH with R99S, H100L, L101F
VL: B1 VL with S91A, Y92N, T93S
B8: affinity matured anti-NSP4 antibody clone 51.30 (Fab, V domains shown)
VH: B5 VH with S52P, P53T, T54A, R99S, H100L, L101F
VL: B1 VL with T94A
B9: affinity matured anti-NSP4 antibody clone 51.51 (Fab, V domains shown)
VH: B5 VH with K98R, R99G, H100L, L101F
VL: B1 VL with T94A
B10: affinity matured anti-NSP4 antibody clone 51.82 (Fab, V domains shown)
VH: B5 VH with K98R, R99G, H100L, L101F
VL: B1 VL with S91T, T93N, T94A
B11: anti-NSP4 antibody 4-3 (antibody, V domains shown)
VH: EVQLVESGGGLVQPGGSLRLSCAASGFTFSSYDISWVRQAPGKGLEWVGTISPYDGYTDYADSVKGRFTISADTSKNTAYLQMNSLRAEDTAVYYCARYIRRYSVHYGMDYWGQGTLVTVSS
VL: B1 VL
B12: anti-NSP4 antibody 4-4 (antibody, V domains shown)
VH: EVQLVESGGGLVQPGGSLRLSCAASGFTFTSTSIHWVRQAPGKGLEWVAEITPHGGYTNYADSVKGRFTISADTSKNTAYLQMNSLRAEDTAVYYCARGRTKWGWLYGMDYWGQGTLVTVSS
VL: B1 VL
B13: anti-NSP4 antibody 1-3 (antibody, V domains shown)
VH: EVQLVESGGGLVQPGGSLRLSCAASGFTFSDNWISWVRQAPGKGLEWVGYIYPASGYTDYADSVKGRFTISADTSKNTAYLQMNSLRAEDTAVYYCASDSPHAYWYAMDYWGQGTLVTVSS
VL: B1 VL
B14: anti-NSP4 antibody 2-2 (antibody, V domains shown)
VH: EVQLVESGGGLVQPGGSLRLSCAASGFTFSSTAISWVRQAPGKGLEWVGEIYPSDGYTDYADSVKGRFTISADTSKNTAYLQMNSLRAEDTAVYYCARVKWAVSSLGVMDYWGQGTLVTVSS
VL: B1 VL
B15: anti-NSP4 antibody 1-2 (antibody, V domains shown)
VH: EVQLVESGGGLVQPGGSLRLSCAASGFTFSGYSIHWVRQAPGKGLEWVAGISPTNGYTDYADSVKGRFTISADTSKNTAYLQMNSLRAEDTAVYYCARLVFYRGVMDYWGQGTLVTVSS
VL: B1 VL
B16: anti-NSP4 antibody 1-5 (antibody, V domains shown)
VH: EVQLVESGGGLVQPGGSLRLSCAASGFTFTNNSISWVRQAPGKGLEWVGAISPNNGSTYYADSVKGRFTISADTSKNTAYLQMNSLRAEDTAVYYCARNAWHYSWVGVMDYWGQGTLVTVSS
VL: B1 VL
B17: anti-NSP4 antibody 2-5 (antibody, V domains shown)
VH: EVQLVESGGGLVQPGGSLRLSCAASGFTFTGYGISWVRQAPGKGLEWVGWIYPASGATYYADSVKGRFTISADTSKNTAYLQMNSLRAEDTAVYYCARHRAFDWYPYYIGSSVMDYWGQGTLVTVSS
VL: B1 VL
B18: anti-NSP4 antibody 1-1 (antibody, V domains shown)
VH: EVQLVESGGGLVQPGGSLRLSCAASGFTFSGSWISWVRQAPGKGLEWVGTISPYNGSTYYADSVKGRFTISADTSKNTAYLQMNSLRAEDTAVYYCARVLRPKVYASVMDYWGQGTLVTVSS
VL: B1 VL
B19: anti-NSP4 antibody 4-2 (antibody, V domains shown)
VH: EVQLVESGGGLVQPGGSLRLSCAASGFTFSGSDISWVRQAPGKGLEWVGEIYPSNGDTYYADSVKGRFTISADTSKNTAYLQMNSLRAEDTAVYYCARSVRPSWWAMDYWGQGTLVTVSS
VL: B1 VL
B20: anti-NSP4 antibody 2-1 (antibody, V domains shown)
VH: EVQLVESGGGLVQPGGSLRLSCAASGFTFTDYSIHWVRQAPGKGLEWVAEIYPYSGDTYYADSVKGRFTISADTSKNTAYLQMNSLRAEDTAVYYCARDGDGWFDWAMDYWGQGTLVTVSS
VL: B1 VL
B21: anti-NSP4 antibody 2-4 (antibody, V domains shown)
VH: EVQLVESGGGLVQPGGSLRLSCAASGFTFSDYWISWVRQAPGKGLEWVAGISPNNGDTYYADSVKGRFTISADTSKNTAYLQMNSLRAEDTAVYYCAREDDDERDYAMDYWGQGTLVTVSS
VL: B1 VL
B22: anti-NSP4 antibody 2-3 (antibody, V domains shown)
VH: EVQLVESGGGLVQPGGSLRLSCAASGFTFTDSDISWVRQAPGKGLEWVAWISPSDGATDYADSVKGRFTISADTSKNTAYLQMNSLRAEDTAVYYCAHEASDDDYAIDYWGQGTLVTVSS
VL: B1 VL

biological target: T1, mouse active NSP4 (mA-NSP4); assay: competition phage ELISA (phage IC50): phage clone preincubated with soluble mA-NSP4, then on NSP4-coated wells
Experimental: Phage at sub-saturating concentrations were first incubated with increasing concentrations of target NSP4 antigen (either hZ, hA, mZ, or mA) for 1 to 2 hour(s), and then transferred to wells coated with the same NSP4 antigen to capture the unbound phage.
Briefly, 2 ug/ml of NSP4 (hZ, hA, mZ, or mA variants) was coated on wells overnight at 4° C. in PBS supplemented with 0.5% BSA. Each individual phage clone (at 0.01 OD/ml) was purified and incubated with increasing concentrations of soluble NSP4 protein for 2 h at room temperature before being placed into wells coated with immobilized NSP4 protein for 15 min at room temperature. The wells were then washed with PBS supplemented with 0.05% Tween-20 for 10 times and developed using anti-M13 phage antibody conjugated with HRP (New England Biolabs). […] The soluble phage:antigen complex, with higher likelihood to be high-affinity phage clones, would thus be removed through successive washing steps, resulting in lower A450 signal at any given concentration of soluble antigen. Consequently, higher affinity phage clones would have a lower phage IC50 value, with a concomitant leftward-shift in the binding curves, compared to lower affinity phage clones.

Binder | IC50 [nM]
B1 | 25

biological target: T2, human NSP4 (hNSP4), form not stated in …; assay: phage competition binding assay (phage IC50), soluble hNSP4 competitor

Binder | IC50 [nM]
B2 | 23.4
B3 | 22.8
B4 | 25.7

biological target: T3, mouse NSP4 (mNSP4), form not stated in …; assay: ratio of phage IC50 against the parental clone 35.WT

Binder | Affinity improvement to mNSP4 [fold]
B2 | 2.7
B3 | 1.7
B4 | 0.6
B5 | 2

biological target: T3, mouse NSP4 (mNSP4), form not stated in …; assay: phage competition binding assay (phage IC50), soluble mNSP4 competitor

Binder | IC50 [nM]
B6 | 0.375
B2 | 0.048
B7 | 0.105
B3 | 0.075
B4 | 0.206
B8 | 0.116
B5 | 0.064
B9 | 0.296
B10 | 0.037

Biological target: T4, mouse active NSP4 (mA-NSP4)
Assay: BLI; no affinity

Binder | Kd [nM]
B11 | > 1000
B12 | > 1000
B13 | > 1000
B14 | > 1000
B15 | > 1000
B16 | > 1000
B17 | > 1000
B18 | > 1000
B19 | > 1000

Biological target: T5, mouse zymogen NSP4 (mZ-NSP4)
Assay: BLI; no affinity

Binder | Kd [nM]
B11 | > 1000
B12 | > 1000
B13 | > 1000
B15 | > 1000
B16 | > 1000
B18 | > 1000
B19 | > 1000

biological target: T3, mouse NSP4 (mNSP4), form not stated in …; assay: ratio of phage IC50 against the parental clone 51.WT

Binder | Affinity improvement to mNSP4 [fold]
B6 | 49.8
B7 | 178
B8 | 161
B9 | 63
B10 | 505

biological target: T6, human active NSP4 (hA-NSP4); assay: competition phage ELISA (phage IC50): phage clone preincubated with soluble hA-NSP4, then on NSP4-coated wells

Binder | IC50 [nM]
B20 | 3.81
B12 | 1.48
B21 | 1.63
B14 | 10.1
B17 | 5130
B22 | 4.96
B19 | 84.8
